Test [1] concerns the target Human Semaphorin3A-Fc (R&D Systems), TPP-13211 (human). Put plainly: cell-based or functional assay.
Test [2] shares this target. Briefly: cell-based or functional assay. This is another data set of the same source.
Test [3] concerns the target T1, Human Semaphorin3A-Sema Domain, TPP-19068 (human, UniProt Q14563 21-569).
T1 construct: produced inhouse in HEK293-6E; also called human monovalent Sema3A domain
T1 sequence: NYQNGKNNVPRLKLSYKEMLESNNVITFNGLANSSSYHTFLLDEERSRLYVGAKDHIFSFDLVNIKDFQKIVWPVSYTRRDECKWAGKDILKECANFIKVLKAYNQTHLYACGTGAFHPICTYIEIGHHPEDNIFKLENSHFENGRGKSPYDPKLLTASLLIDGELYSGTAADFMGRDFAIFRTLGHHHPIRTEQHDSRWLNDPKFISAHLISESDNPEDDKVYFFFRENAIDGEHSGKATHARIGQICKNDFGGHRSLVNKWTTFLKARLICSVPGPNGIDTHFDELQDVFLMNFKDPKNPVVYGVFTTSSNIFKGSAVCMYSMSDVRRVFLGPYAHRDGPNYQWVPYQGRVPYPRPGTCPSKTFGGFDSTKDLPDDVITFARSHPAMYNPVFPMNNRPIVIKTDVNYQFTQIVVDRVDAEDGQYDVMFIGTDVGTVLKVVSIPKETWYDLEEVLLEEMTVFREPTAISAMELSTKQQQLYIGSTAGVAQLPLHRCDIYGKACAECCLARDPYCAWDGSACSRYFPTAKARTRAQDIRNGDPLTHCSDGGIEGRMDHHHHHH
Put plainly: SPR, captured antibody, Sema3A domain analyte. The method, then: (§1) To assess the binding kinetics and affinity of anti-Sema3A antibodies as well as their species cross-reactivity profile, binding assays were conducted using surface plasmon resonance (SPR). Binding assays were performed on a Biacore T200 instrument or on a Biacore 8K+ instrument (Cytiva) at 25° C. using assay buffer HBS P+, 300 mM NaCl, 0.75 mM CaCl₂, 2.5 mM MgCl₂, 1 mg/ml BSA, 0.05% NaN₃. Antibodies were captured either via anti-human Fc IgGs (“Human antibody capture kit”, Order No. BR100839, Cytiva) or in case of Fc-tagged analytes by anti-human Fab IgGs (“Human Fab capture kit”, Order No. 28958325, Cytiva) covalently amine coupled to a Series S CM5 sensor chip (Cytiva). The amine coupling was carried out according to the manufacturer's instructions using 1-ethyl-3-(3-dimethylaminopropyl) carbodiimide hydrochloride (EDC), N-hydroxysuccinimide (NHS) and ethanolamine HCl, pH 8.5 (“Amine Coupling Kit” BR-1000-50, Cytiva.). For phage display hits Fc-tagged human and mouse Sema3A was used as analytes in a concentration range from 1.56-200 nM. Human, mouse, cynomolgus, rat, dog and pig monovalent Sema3A domain were used as analytes in a concentration series from […] in multi cycle kinetics mode or in 100 nM for binding analysis only. The sensor surface was regenerated with glycine pH 2.0 after each antigen injection. Obtained sensorgrams were double referenced (subtraction of reference flow cell signal and buffer injection) and were fitted to a 1:1 Langmuir binding model to derive kinetic data using the Biacore T200 Evaluation software.
(SPR reads the build-up and loss of mass on a sensor chip optically.)

For test [4], the target named is T2, Human Semaphorin3A-Fc (R&D Systems), TPP-13211 (human).
T2 construct: R&D Systems 1250-S3; also called recombinant human Sema3A-Fc chimera
Briefly: competition ELISA on coated TPP-13211, competitor biotinylated TPP-15374. The method, then: For screening in a competition ELISA setup, human Sema3a (TPP-13211) was coated onto 384-well plates (Greiner bio-one, 781077) with a concentration of 0.5 μg/ml in coating buffer (Carbonate-Basis pH 9.6, Candor 121125) over night at 10° C. After washing the plates 3 times with 50 μl PBS 0.05% Tween the plates were blocked with 50 μl Smart Block® (Candor 113500) for 1 h at 20° C. and washed again 3 times as described.
Subsequently, 20 μl of pre-mixed antibody solution was added to the plates and incubate for 18 h at 10° C. […] The total concentration of the added antibody solution was 0.25 μg/ml. During the incubation time the antibodies bound to the plates in a competitive manner as they compete for the same epitope on the human Sema3A protein.
After subsequent washing with 50 μl PBS 0.05% Tween for 3 times, 20 μl of a Streptavidin-HRP solution (R&D Systems, DY998, 1:200 in PBS 0.05% Tween 10% Smart Block) were added and incubated for 1 h and 20° C. followed by subsequent washing 3 times with 50 μl PBS 0.05% Tween and addition of 20 μl Amplex Red solution (Invitrogen A12222, 1:1000 in NaP-buffer 50 mM pH7.6 with 1:10000 of 30% H2O2). After a final incubation for 20 min at 20° C. the signal was determined using an emission wavelength of 595 nm and excitation of 530 nm.
(An ELISA detects its analyte on a solid surface through an enzyme-linked reagent.)

In test [5] the target is T1, Human Semaphorin3A-Sema Domain, …. Put plainly: SPR, 100 nM TPP-19068, binding experiment. Here is the method:
as §1

The source of these data is patent US20240254222A1 (Bayer, published 2024).

As usually defined, the Kd is the equilibrium constant for the complex coming apart. Higher therefore signals weaker binding.

Numbering of substitutions follows the chain as printed.

T2 sequence (chain, as listed by the source limits assumed): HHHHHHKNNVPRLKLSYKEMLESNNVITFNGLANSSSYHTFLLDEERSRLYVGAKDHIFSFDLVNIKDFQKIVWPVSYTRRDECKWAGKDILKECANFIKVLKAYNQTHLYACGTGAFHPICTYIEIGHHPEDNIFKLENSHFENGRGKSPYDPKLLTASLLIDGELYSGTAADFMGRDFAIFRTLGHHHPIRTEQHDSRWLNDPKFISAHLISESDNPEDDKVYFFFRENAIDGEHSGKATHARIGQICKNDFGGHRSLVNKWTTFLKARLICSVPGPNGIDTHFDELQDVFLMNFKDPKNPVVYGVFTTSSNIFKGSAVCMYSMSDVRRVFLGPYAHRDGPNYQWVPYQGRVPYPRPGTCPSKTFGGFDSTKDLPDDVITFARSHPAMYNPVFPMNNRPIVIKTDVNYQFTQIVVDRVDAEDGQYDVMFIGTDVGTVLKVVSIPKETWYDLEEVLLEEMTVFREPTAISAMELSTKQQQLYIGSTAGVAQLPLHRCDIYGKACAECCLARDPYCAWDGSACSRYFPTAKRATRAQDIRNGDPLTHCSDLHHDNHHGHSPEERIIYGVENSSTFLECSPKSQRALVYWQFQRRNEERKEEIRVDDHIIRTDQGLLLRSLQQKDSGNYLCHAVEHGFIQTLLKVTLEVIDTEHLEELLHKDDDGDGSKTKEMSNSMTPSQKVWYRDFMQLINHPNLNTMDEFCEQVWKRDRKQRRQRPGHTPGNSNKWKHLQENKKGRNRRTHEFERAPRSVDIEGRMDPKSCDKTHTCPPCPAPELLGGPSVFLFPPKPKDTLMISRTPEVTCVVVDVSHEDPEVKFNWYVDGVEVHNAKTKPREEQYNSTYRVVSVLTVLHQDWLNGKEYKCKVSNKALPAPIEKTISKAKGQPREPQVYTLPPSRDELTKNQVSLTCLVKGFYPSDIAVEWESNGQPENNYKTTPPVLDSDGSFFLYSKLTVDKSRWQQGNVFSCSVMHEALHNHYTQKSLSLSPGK

B1: TPP-15051 (antibody, mouse IgG1)
heavy: EVQLLESGGGLVQPGGSLRLSCAASGFTFSSYPMGWVRQAPGKGLEWVAGIDDDGDSDTRYAPAVKGRATISRDNSKNTVYLQMNSLRAEDTAVYYCAKHTGIGANSAGSIDAWGQGTLVTVSSAKTTPPSVYPLAPGSAAQTNSMVTLGCLVKGYFPEPVTVTWNSGSLSSGVHTFPAVLQSDLYTLSSSVTVPSSTWPSETVTCNVAHPASSTKVDKKIVPRDCGCKPCICTVPEVSSVFIFPPKPKDVLTITLTPKVTCVVVDISKDDPEVQFSWFVDDVEVHTAQTQPREEQFNSTFRSVSELPIMHQDWLNGKEFKCRVNSAAFPAPIEKTISKTKGRPKAPQVYTIPPPKEQMAKDKVSLTCMITDFFPEDITVEWQWNGQPAENYKNTQPIMDTDGSYFVYSKLNVQKSNWEAGNTFTCSVLHEGLHNHHTEKSLSHSPGK
light: SYELTQPPSVSVSPGQTARITCSGGGSYTGSYYYGWYQQKPGQAPVTVIYYNNKRPSDIPERFSGSLSGTTNTLTISGVQAEDEADYYCGSADNSGDAFGTGTKVTVLGQPKSSPSVTLFPPSSEELETNKATLVCTITDFYPGVVTVDWKVDGTPVTQGMETTQPSKQSNNKYMASSYLTLTARAWERHSSYSCQVTHEGHTVEKSLSRADCS
With B1, the “EC50 [nM], MCM assay” value in test [1] came to 42.9 nM. The “EC50 (nM), GCC assay” value in test [2] is 243 nM.

B2: TPP-25497 (antibody, human IgG1, lambda, V domains shown)
VH: EVQLLESGGGLVQPGGSLRLSCAASGFDFDSYEMNWVRQAPGKGLEWVSGISWNSGWIDYADSVKGRFTISRDNSKNTLYLQMNSLRAEDTAVYYCARSGYSSSWFDPDFDYWGQGTLVTVSS
VL: QSVLTQPPSVSGAPGQRVTISCTGSSSDIGAGYDVHWYQQLPGTAPKLLIYGNSNRPSGVPDRFSGSKSGTSASLAITGLQAEDEADYYCSSYEGINPYVVFGGGTKLTVLG
In test [3], B2 had a Kd of 0.052 nM. For the same molecule, in test [4], the “VAL norm to TPP-9809 (1 to 1 ratio)” value is 0.39 and the “VAL norm to TPP-9809 (1 to 5 ratio)” value amounted to 0.26.

B3: TPP-26111 (antibody, human IgG1, lambda, V domains shown)
VH: B2 VH with D28T
VL: B2 VL with D28N, E94A, I96P
For B3, the Kd in test [3] worked out at 0.052 nM. In test [4], the “VAL norm to TPP-9809 (1 to 1 ratio)” value is 0.49 and the “VAL norm to TPP-9809 (1 to 5 ratio)” value was found to be 0.18.

B4: TPP-25655 (antibody, human IgG1, lambda, V domains shown)
VH: B2 VH with D30S
VL: B2 VL with D28N, N53A, I96P
In the case of B4, the affinity in test [3], expressed as Kd, was 0.049 nM. Besides, in test [4], the “VAL norm to TPP-9809 (1 to 1 ratio)” value is 0.39 and the “VAL norm to TPP-9809 (1 to 5 ratio)” value came out at 0.23.

B5: TPP-31357 (Fab, V domains shown)
V domain 1: EVQLLESGGGLVQPGGSLRLSCAASGFTFRSYAVHWVRQAPGKGLEWVSSTEGSGVGTSYTDSVKGRFTISRDNSKNTLYLQMNSLRAEDTAVYYCARMLGGGNPLDYLDYWGQGTLVTVSS
V domain 2: QSVLTQPPSASGTPGQRVTISCSGSSSNLGEGYDVHWYQQLPGKAPKLLIYYSDFRPSGVSDRFSGSKSGTSASLAISGLQSEDEADYYCAAWDDSLSSQVFGGGTQVTVLG
notes: Fab heavy chain entry carries myc and His tags; also called Fab of 3H4 Univ Ramot
B5 returned a Kd in test [5] of 0.35 nM.
